Source: patent US20030207391A1 (published 2003)

What follows are binders tested against T1, soluble FLT-1 (sFLT-1) (Homo sapiens, UniProt P17948-2 27-687, limits assumed) (assay: BIAcore; 50 nM sFLT-1 pre-incubated overnight with 50 µg/ml construct, passed over immobilised mAb 2B2).
T1 construct: the whole FLT-1 entry is named
Protocol: Binding of Domain 4 on sFLT-1 is determined using Biomolecular Interaction Analysis (Biacore). (Fisher R. J. and Fivash, M. (1994) Curr. Opin. Biotech. 5, 389-395).
A monoclonal antibody (2B2) specific to Domains 1 to 3 of sFLT-1, but not Domain 4, was immobilized on the sensor chip at a concentration of 30 μg/ml in 10 mM NaAc, pH 5. 50 μg/ml of the four Domain 4 constructs in 20 mM Tris-HCl, pH 7.4 were individually pre-incubated overnight at 4° C. with 50 nM sFLT-1 in HEPES buffer (O.O1M Hepes,pH 7.4, 0.15M NaCl, 3 mM EDTA, 0.005% polysorbate 20 (v/v)). Thereafter the pre-incubated suspensions were passed across the immobilized monoclonal antibody and binding monitored by mass sensitive detection, measured in response units (RU). […] A further control was also run whereby the four Domain 4 constructs, which have not been pre-incubated with sFLT-1, were passed over the immobilized monoclonal antibody. After each run the sensor chip was regenerated in 10 mM Glycine pH 1.75 buffer ready for the next experiment.

T1 sequence (P17948 other isoform, or with tags, fused parts or gaps limits assumed): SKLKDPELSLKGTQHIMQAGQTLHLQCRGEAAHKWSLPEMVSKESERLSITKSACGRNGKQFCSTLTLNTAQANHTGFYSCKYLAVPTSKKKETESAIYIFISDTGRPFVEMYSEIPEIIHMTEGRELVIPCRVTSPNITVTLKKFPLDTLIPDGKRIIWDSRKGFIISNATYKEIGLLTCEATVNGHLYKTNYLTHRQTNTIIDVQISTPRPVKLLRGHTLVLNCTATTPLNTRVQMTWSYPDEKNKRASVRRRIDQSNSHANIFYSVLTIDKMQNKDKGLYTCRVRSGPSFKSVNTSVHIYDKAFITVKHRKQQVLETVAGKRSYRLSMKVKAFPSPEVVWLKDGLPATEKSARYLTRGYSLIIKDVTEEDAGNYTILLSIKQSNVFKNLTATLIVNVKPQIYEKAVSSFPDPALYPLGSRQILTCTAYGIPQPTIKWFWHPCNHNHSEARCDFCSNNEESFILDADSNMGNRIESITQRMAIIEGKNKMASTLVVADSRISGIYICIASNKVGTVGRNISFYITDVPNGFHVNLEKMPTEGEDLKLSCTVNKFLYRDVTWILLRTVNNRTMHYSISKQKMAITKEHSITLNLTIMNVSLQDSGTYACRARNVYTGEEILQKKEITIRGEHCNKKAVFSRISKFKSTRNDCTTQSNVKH

Row | Binder | % inhibition of sFLT-1 [%]
1 | FLT-1 Domain 4 Construct 0 (residues 338-440), His-tagged (receptor, probably a printing error; also called sFLT-1 Dom; 4 (construct 0); His-Tagged Domain 4 (Construct 0); not shown: histidine tag from the E. coli expression vector) HRKQQVLETVAGKRSYRLSMKVKAFPSPEVVWLKDGLPATEKSARYLTRGYSLIIKDVTEEDAGNYTILLSIKQSNVFKNLTATLIVNVKPQIYEKAVSSFPD | 5.85
2 | FLT-1 Domain 4 Construct 1 (residues 330-429), His-tagged (receptor, not shown: histidine tag from the E. coli expression vector) DKAFITVKHRKQQVLETVAGKRSYRLSMKVKAFPSPEVVWLKDGLPATEKSARYLTRGYSLIIKDVTEEDAGNYTILLSIKQSNVFKNLTATLIVNVKPQ | 64.7
3 | FLT-1 Domain 4 Construct 2 (residues 330-440), His-tagged (receptor, not shown: histidine tag from the E. coli expression vector) DKAFITVKHRKQQVLETVAGKRSYRLSMKVKAFPSPEVVWLKDGLPATEKSARYLTRGYSLIIKDVTEEDAGNYTILLSIKQSNVFKNLTATLIVNVKPQIYEKAVSSFPD | 73.3
